From patent US20260125448A1 (published 2026)

Biological target: T1, MAGE-A4 (peptide named MA4-286) peptide on HLA-A*02:01 (human)
T1 peptide: KVLEHVVRV
Experiment: multimer staining

B1: MA4-286 G6 TCR (TCR, V domains shown)
Valpha: AQTVTQSQPEMSVQEAETVTLSCTYDTSENNYYLFWYKQPPSRQMILVIRQEAYKQQNATENRFSVNFQKAAKSFSLKISDSQLGDTAMYFCASHSGAGSYQLTFGKGTKLSVIP
Vbeta: DTGVSQDPRHKITKRGQNVTFRCDPISEHNRLYWYRQTLGQGPEFLTYFQNEAQLEKSRLLSDRFSAERPKGSFSTLEIQRTEQGDSAMYLCASSPTGGFYEQYFGPGTRLTVT
B1: recognises.
